{"source": "patent US20250051266A1", "about": "“Novel GLV-Phenolamide: Biosynthesis and Function in Protecting Plants from Herbivore Attack” (Max-Planck-Gesellschaft zur Förderung der Wissenschaften …, priority 2021, published 2025)", "proteins": {"B1": {"name": "NaPPO1 (Nicotiana attenuata) (protein)", "chain": "MASSSTLPLCTTKTPFSSSTNSFFFAKPSHLFLNGKRNQSFKVSCTGEHDGNQLDAIKEGAVERRNVLLGLGGLYGAANLAPLASAAPVPPPDLKSCGPATITDGPTVSYSCCPPTPDDMDSVPYYKIPRMSKLRKRPAAQDVSEEYIAKYQLATSKMRELDKDPFDPLGFKQQANIHCAYCNDAYTMGDKKLQVHQSWLFFPFHRWYLYFYERILGSLIDDPTFALPYWNWDHPSGMRLPAMFDVEGSSLYDARRNPNVRNGTIIDLGFFGNEVKTNEIQMITNNLILMYRQMITNAPSPLLFFGEPYRFGSKPNPGQGTIENIPHTPVHIWTGTVRDTDLGNGVKSYGEDMGNFYSAGLDPVFYSHHANVDRMWNEWKALGGKRRDLTDKDWLNSEFFFYDENRDPWRVKVRDCLDSKKMGYDYEPKATPWRNFKPGKKTTPGKVNLRSVKPASKVFPLSNLDRAICFSIERPATSRSQQEKDEFEEVLTFKNLKYDDSRYIKFDVFVNADKTVNADDIDKTEYAGSYTSLPHVHGPNNATHVVEVEEFKLAITELLEDCGLEDDDIIAVTVVPKTGGEVVSIDCVLIELKAFY"}, "B2": {"name": "NaPPO2 (Nicotiana attenuata) (protein)", "chain": "MASSSSSTLPLCASKTPSSSFTNTNSSFFAKPSQLFLHGKRNQNFKFSCNANSGEHDKNLDAVDRRNVLLGLGGLYGAANLAPLATAAPIPPPDLKSCSKAHINDQEEVSYSCCPPIPSDMDSVPYYKFPSMPKLRIRPAAHAADEEYIAKYQLATSRMRELDKDPFDPLGFKQQANIHCAYCNGAYKIGGKELQVHFSWLFFPFHRWYLYFYERILGSLINDPTFGLPYWNWDHPKGMRIPPMFDREGSSLYDARRNQSHRNGTIIDLGYFGTEVQTTQLQQMTNNLTIMYRQMITNAPCPLLFFGQPYPLGTDPSPGMGTIENIPHTPVHIWVGSGPNENNVQHGEDMGNFYSAGLDPLFYSHHANVDRMWSEWKALGGKRRDLTHKDWLNSEFFFYDENRNPFRVKVRDCLDSKKMGFDYAPMPTPWRNFKPIRKSNAGKVNLSSVPPASRVFPLSKLDRAISFSIDRPSSSRTQQEKNEQEEMLTFNNIKYDDSKYIRFDVFLNVDKTVNADELDKAEYAGSYTSLPHVHGDNASHVTSVTFQLAITELLEDIGLEDEDTIAVTVVPKTGGEEISIEGVEIKLVDC"}}, "assay_type_in_all_cases": "biochemical, Nicotiana attenuata", "conditions_in_all_cases": "other substrate fixed ((Z)-3-hexenal 1 mM or caffeoylputrescine 80 μM)", "key": {"[1]": {"substrate": "CC/C=C\\CC=O", "assay": "Steady-state Michaelis-Menten kinetics of NaPPO1 (with or without NaBBL2)", "excerpt": "(§1) FIG. 49 Michaelis-Menten kinetics of PPO1 and BBL2 with different concentrations of caffeoylputrescine and (Z)-3-hexenal. Steady-state kinetics of caffeoylputrescine or (Z)-3-hexenal conversion to CPH catalyzed by PPO1 purified from E. coli B121 expressing PPO1. Error bars represent the standard error of the means (SEM) from three independent measurements of reaction velocity. The kinetic constants, apparent Km and Vmax (Table 2), and their standard errors were inferred using nonlinear Michaelis-Menten curve-fitting in GraphPad Prism (v. 9.0d). Substrate concentration for (Z)-3-hexenal was 1 mM.\nas §1, with “FIG. 51” for “FIG. 49”, “Vmax (see Table” for “Vmax (Table”, “for caffeoylputrescine” for “for (Z)-3-hexenal”, “was 80 μM.” for “was 1 mM.”\n(§2) Steady-state kinetics of NaPPO1, NaPPo2 and NaBBL2 enzymes: For steady-state kinetic analysis, the ability to oxidize N-caffeoylputrescine was tested in 84 mM acetate buffer (pH 4.8) at 22° C. water bath, containing 1 mM (Z)-3-hexnal, 1 mM FAD, 32 μg NaPPO1/NaPPO2, 30 μg/90 μg NaBBL2 (total volume 100 μL); assays lacking NaBBL2 enzymes served as negative controls.\n(§3) The following eight N-caffeoylputrescine final concentrations were each tested at three independent experiments: 10, 20, 40, 60, 80, 120, 140, and 160 μM. Likewise, the ability to catalyze (Z)-3-hexnal was tested in 84 mM acetate buffer (pH 4.8) at 22° C., containing 80 μM N-caffeoylputrescine, 1 mM FAD, 32 μg NaPPO1/NaPPO2, 30 μg/90 μg NaBBL2 (total volume 100 μL); again, assays lacking NaBBL2 enzymes served as negative controls. The following eight (Z)-3-hexnal final concentrations were each tested in three independent experiments: 500, 600, 700, 800, 1000, 1200, 1600, and 2000 μM. The reactions were initiated by the addition of the corresponding recombinant enzymes and the components were mixed by briefly vortexing, and immediately returned to the 22° C. water bath for incubation. After 20 minutes, all the reactions were briefly vortexed, and 100 μL aliquot of each reaction was transferred to a cold Eppendorf tube (−20° C.) containing 100 μL of MeOH (with 600 ng/mL testosterone as an internal standard) to terminate enzyme activity. Samples were centrifuged at 16,000g, 4° C. for 30 min, and 150 μL supernatants were transferred into to 2 mL glass vials for LC/MS (1 μL injection volume) analysis under the same method as described previously. Standard curves for caffeoylputrescine using authentic standards (with 600 ng/mL testosterone as an internal standard) (FIG. 34) were used to calculate the concentrations of substrate and product in each assay sample. The kinetic constants for caffeoylputrescine and (Z)-3-hexnal, apparent Km and Vmax, were inferred using a nonlinear regression in GraphPad Prism 9 (FIG. 34)."}, "[2]": {"substrate": "NCCCCNC(=O)/C=C/c1ccc(O)c(O)c1", "assay": "Steady-state Michaelis-Menten kinetics of NaPPO1 (with or without NaBBL2)", "excerpt": "as §1\nas §1, with “FIG. 51” for “FIG. 49”, “Vmax (see Table” for “Vmax (Table”, “for caffeoylputrescine” for “for (Z)-3-hexenal”, “was 80 μM.” for “was 1 mM.”\nas §2, §3"}, "[3]": {"substrate": "CC/C=C\\CC=O", "assay": "Steady-state Michaelis-Menten kinetics of NaPPO2 (with or without NaBBL2)", "excerpt": "as §1, with “50” for “49”, “PPO2” for “PPO1”, “PPO2.” for “PPO1.”\nas §1, with “52” for “49”, “PPO2” for “PPO1”, “PPO2.” for “PPO1.”, “mM.Substrate concentration for caffeoylputrescine was 80 μM.” for “mM.”\nas §2, §3"}, "[4]": {"substrate": "NCCCCNC(=O)/C=C/c1ccc(O)c(O)c1", "assay": "Steady-state Michaelis-Menten kinetics of NaPPO2 (with or without NaBBL2)", "excerpt": "as §1, with “50” for “49”, “PPO2” for “PPO1”, “PPO2.” for “PPO1.”\nas §1, with “52” for “49”, “PPO2” for “PPO1”, “PPO2.” for “PPO1.”, “mM.Substrate concentration for caffeoylputrescine was 80 μM.” for “mM.”\nas §2, §3"}, "[5]": {"conditions": "other: PPO1 + BBL2 (30 μg), pH 4.8, 22.0 °C"}, "[6]": {"conditions": "other: PPO1 + BBL2 (90 μg), pH 4.8, 22.0 °C"}, "[7]": {"conditions": "other: PPO1 alone, pH 4.8, 22 °C"}, "[8]": {"conditions": "other: PPO2 + BBL2 (30 μg), pH 4.8, 22.0 °C"}, "[9]": {"conditions": "other: PPO2 + BBL2 (90 μg), pH 4.8, 22.0 °C"}, "[10]": {"conditions": "other: PPO2 alone, pH 4.8, 22 °C"}}, "data": [{"protein": "B1", "values": [{"measurement": "Km", "setting": "[1]; [5]", "value": "870.67 ± 381.05", "unit": "µM"}, {"measurement": "Vmax", "setting": "[1]; [5]", "value": "0.10 ± 0.02", "unit": "µM/mg/min"}, {"measurement": "Km", "setting": "[1]; [6]", "value": "870.67 ± 381.05", "unit": "µM"}, {"measurement": "Vmax", "setting": "[1]; [6]", "value": "0.09 ± 0.02", "unit": "µM/mg/min"}, {"measurement": "Km", "setting": "[1]; [7]", "value": "853.22 ± 257.87", "unit": "µM"}, {"measurement": "Vmax", "setting": "[1]; [7]", "value": "0.09 ± 0.01", "unit": "µM/mg/min"}, {"measurement": "Km", "setting": "[2]; [5]", "value": "86.09 ± 15.34", "unit": "µM"}, {"measurement": "Vmax", "setting": "[2]; [5]", "value": "0.25 ± 0.02", "unit": "µM/mg/min"}, {"measurement": "Km", "setting": "[2]; [6]", "value": "95.52 ± 28.20", "unit": "µM"}, {"measurement": "Vmax", "setting": "[2]; [6]", "value": "0.26 ± 0.04", "unit": "µM/mg/min"}, {"measurement": "Km", "setting": "[2]; [7]", "value": "67.30 ± 10.59", "unit": "µM"}, {"measurement": "Vmax", "setting": "[2]; [7]", "value": "0.21 ± 0.01", "unit": "µM/mg/min"}]}, {"protein": "B2", "values": [{"measurement": "Km", "setting": "[3]; [8]", "value": "662.39 ± 360.69", "unit": "µM"}, {"measurement": "Vmax", "setting": "[3]; [8]", "value": "0.021 ± 0.004", "unit": "µM/mg/min"}, {"measurement": "Km", "setting": "[3]; [9]", "value": "643.31 ± 217.25", "unit": "µM"}, {"measurement": "Vmax", "setting": "[3]; [9]", "value": "0.024 ± 0.003", "unit": "µM/mg/min"}, {"measurement": "Km", "setting": "[3]; [10]", "value": "673.35 ± 393.28", "unit": "µM"}, {"measurement": "Vmax", "setting": "[3]; [10]", "value": "0.023 ± 0.005", "unit": "µM/mg/min"}, {"measurement": "Km", "setting": "[4]; [8]", "value": "206.18 ± 49.95", "unit": "µM"}, {"measurement": "Vmax", "setting": "[4]; [8]", "value": "0.63 ± 0.09", "unit": "µM/mg/min"}, {"measurement": "Km", "setting": "[4]; [9]", "value": "207.19 ± 78.07", "unit": "µM"}, {"measurement": "Vmax", "setting": "[4]; [9]", "value": "0.67 ± 0.17", "unit": "µM/mg/min"}, {"measurement": "Km", "setting": "[4]; [10]", "value": "204.35 ± 51.37", "unit": "µM"}, {"measurement": "Vmax", "setting": "[4]; [10]", "value": "0.64 ± 0.10", "unit": "µM/mg/min"}]}]}
